Patent US20240092867A1 (UNIVERSITY OF CHICAGO, published 2024)

T1: recombinant human VEGF-A145 (human, UniProt P15692-6 27-171)
T1 sequence (looked up): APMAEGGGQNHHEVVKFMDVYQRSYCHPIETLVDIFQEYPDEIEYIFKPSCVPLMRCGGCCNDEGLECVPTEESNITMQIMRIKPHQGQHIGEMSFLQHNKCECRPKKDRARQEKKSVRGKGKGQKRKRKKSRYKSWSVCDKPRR

T2: recombinant laminin α3 2928-3150 protein (linker domain and LG4 domain) (human, UniProt Q16787 2928-3150)
T2 construct: range 2928-3150; Made in HEK-293F cells; also called laminin alpha 3 LG domain recombinant protein
T2 sequence: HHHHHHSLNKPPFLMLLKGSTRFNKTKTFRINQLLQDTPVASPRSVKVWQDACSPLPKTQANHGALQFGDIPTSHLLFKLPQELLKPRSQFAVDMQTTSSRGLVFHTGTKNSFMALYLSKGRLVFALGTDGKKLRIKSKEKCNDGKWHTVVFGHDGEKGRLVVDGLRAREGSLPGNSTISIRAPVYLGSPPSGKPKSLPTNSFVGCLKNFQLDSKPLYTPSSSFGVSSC

B1: Arg substituted HBD (peptide)
peptide: YIGLKDSKSPSELSSIASQVKYAC
notes: not in the list MOLECULES; also called vWF A1 HBD with Arg substituted by Ser; mutated HBD peptide
B2: vascular endothelial growth factor (VEGF)-A121 (ligand, human, UniProt P15692-9 27-147, looked up)
chain: APMAEGGGQNHHEVVKFMDVYQRSYCHPIETLVDIFQEYPDEIEYIFKPSCVPLMRCGGCCNDEGLECVPTEESNITMQIMRIKPHQGQHIGEMSFLQHNKCECRPKKDRARQEKCDKPRR
notes: mature; Purchased in mature form, not glycosylated

What was measured:
[1] = molecular target: T3, vascular endothelial growth factor (VEGF)-A165 (human, UniProt P15692-4 27-191); assay: ELISA; peptides and vWF forms coated at 50 nM, VEGF-A in solution, detected with anti-VEGF-A antibody [panel B]
T3 construct: mature; Purchased in mature form, not glycosylated
Protocol: (§1) (A) Diagram of exon sequence of VEGF-A showing inclusion (+) or exclusion (−) of heparin binding domain exons for the different VEGF-A isoforms. […] Bound VEGF-A was detected using a specific antibody for VEGF-A (n=4, mean±SD). Statistical comparisons were done using ANOVA with Tukey's test compared with BSA control. **p<0.01.
(§2) ELISA was performed as previously reported1. […] After blocking with 2% BSA solution containing PBS-T, 1 μg/mL of recombinant human VEGF-A121 (PeproTech), recombinant human VEGF-A145 (R & D Systems), or recombinant human VEGF-A165 (PeproTech) was added. Bound VEGF-A was detected with 1 μg/mL of mouse anti-human VEGF-A antibody (clone: 26503, R & D systems). After 60 min of incubation, horseradish peroxidase (HRP) conjugated goat anti-mouse antibody (1:2000 dilution, Dako) was added and incubated for another 60 min. Color development and the absorbance measurement were done as described above.

[2] = molecular target: B2; assay: ELISA; peptides and vWF forms coated at 50 nM, VEGF-A in solution, detected with anti-VEGF-A antibody [panel D]
Protocol: as §1, §2

[3] = molecular target: T1, recombinant human VEGF-A145; assay: ELISA; peptides and vWF forms coated at 50 nM, VEGF-A in solution, detected with anti-VEGF-A antibody [panel C]
Protocol: as §1, §2

[4] = molecular target: T4, recombinant human vWF A2 domain (human, UniProt P04275 1498-1665); assay: ELISA; peptides and vWF forms coated at 50 nM, VEGF-A in solution, detected with anti-VEGF-A antibody [panel D]
T4 construct: domain: A2
Protocol: as §1, §2

[5] = molecular target: T5, recombinant human vWF A3 domain (human, UniProt P04275 1683-1874); assay: as above
T5 construct: domain: A3
Protocol: as §1, §2

[6] = molecular target: T6, pro-peptide containing recombinant vWF (UniProt P04275 23-2813); assay: as above
T6 construct: also called immature, pro-peptide-containing recombinant vWF
Protocol: as §1, §2

[7] = molecular target: T7, recombinant human vWF A1 domain (human, UniProt P04275 1261-1468, limits assumed); assay: ELISA; recombinant vWF A1 domain coated (10 µg/mL, legend paragraph 67), GF in solution, detected with anti-VEGF-A antibody [panel B]
T7 construct: domain: A1; also called vWF A1 recombinant protein; recombinant A1 domain
Protocol: FIGS. 18A-C. […] Bound GFs were detected using a specific antibody for each GF (n=4, mean±SD). Statistical analyses were done using ANOVA with Tukey's test or Student's t-test. *p<0.05, **p<0.01.
ELISA tests were performed as described above. […] After blocking with 2% BSA solution containing PBS-T, 1 μg/mL of the recombinant human proteins VEGF-A121, VEGF-A165, PlGF-1, PlGF-2, PDGF-BB, FGF-2, CXCL-12α and CXCL-12γ were added. 1 μg/mL of BSA served as non-binding protein control. Bound GF or chemokine was detected with biotinylated antibodies for human VEGF-A, PlGF, PDGF-BB, FGF-2, or CXCL-12 (R & D Systems). The antibodies were detected by streptavidin-HRP (R & D Systems). Color development and the absorbance measurement were done as described above.

[8] = molecular target: T8, human plasma-derived vWF (human, UniProt P04275 764-2813); assay: ELISA, GF coated 50 nM, vWF 1 µg/mL
T8 construct: mature; also called plasma-derived purified vWF; von Willebrand factor

[9] = molecular target: T9, laminin-111 (human, UniProt P25391 18-3075; P07942 22-1786; P11047 34-1609); assay: ELISA, GF coated, laminin 10 nM
T9 construct: Full-length recombinant human laminin isoform (BioLamina); Chain composition is read from the isoform name

[10] = molecular target: T10, laminin-332 (human, UniProt Q16787 28-1724; Q13751 18-1172; Q13753 22-1193, limits assumed); assay: ELISA, GF coated, laminin 10 nM
T10 construct: Full-length recombinant human laminin isoform (BioLamina); chains read from the isoform name

[11] = molecular target: T11, laminin-421 (human, UniProt Q16363 25-1823; P55268 33-1798; P11047 34-1609); assay: ELISA, GF coated, laminin 10 nM
T11 construct: Full-length recombinant human laminin isoform (BioLamina); chains read from the isoform name

[12] = molecular target: T12, laminin-211 (human, UniProt P24043 23-3122; P07942 22-1786; P11047 34-1609); assay: ELISA, GF coated, laminin 10 nM
T12 construct: Full-length recombinant human laminin isoform (BioLamina); chains read from the isoform name

[13] = molecular target: T13, laminin-411 (human, UniProt Q16363 25-1823; P07942 22-1786; P11047 34-1609); assay: ELISA, GF coated, laminin 10 nM
T13 construct: Full-length recombinant human laminin isoform (BioLamina); chains read from the isoform name

[14] = molecular target: T14, laminin-521 (human, UniProt O15230 36-3695; P55268 33-1798; P11047 34-1609); assay: ELISA, GF coated, laminin 10 nM
T14 construct: Full-length recombinant human laminin isoform (BioLamina); chains read from the isoform name

[15] = molecular target: T15, laminin-511 (human, UniProt O15230 36-3695; P07942 22-1786; P11047 34-1609); assay: ELISA, GF coated, laminin 10 nM
T15 construct: Full-length recombinant human laminin isoform (BioLamina); chains read from the isoform name

[16] = molecular target: T2, recombinant laminin α3 2928-3150 …; assay: ELISA, LG domain protein coated
Protocol: Affinity of GFs against recombinant laminin LG domains. ELISA plates were coated with 1 μg/mL (A) α3₂₉₂₈₋₃₁₅₀, (B) α4₈₂₆₋₁₈₁₆, or (C) α5₃₀₂₆₋₃₄₈₂ and further incubated with 1 μg/mL of VEGF-A165, VEGF-A121, PlGF-2, PlGF-1, PDGF-BB, or FGF-2 solution. Bound GFs were detected using a specific antibody for each GF (n=4, mean±SEM). Statistical analyses were done using the Mann-Whitney U test by comparing the signals obtained from the laminin domain- and the BSA-coated wells. *p<0.05, **p<0.01. […] A SPR chip was functionalized with the laminin α3₂₉₂₈₋₃₁₅₀ recombinant protein (˜1000 RU), and each GF was flowed over the chip at indicated concentrations. Curves represent the specific responses (in RU) to laminin. Experimental curves were fitted with Langmuir binding kinetics.
ELISA tests were performed as described above. […] 1 μg/mL of BSA served as non-binding protein control. After blocking with 2% BSA PBS-0.05% Tween 20 (PBS-T) solution, 1 μg/mL of the recombinant human proteins (VEGF-A121, VEGF-A165, PlGF-1, PlGF-2, PDGF-BB or FGF-2) or 10 μg/mL of biotinylated heparin (Sigma-Aldrich) were added. Bound GF was detected with biotinylated antibodies for human VEGF, PlGF, PDGF-BB, or FGF-2 (R&D Systems). The antibodies were detected by streptavidin-HRP (R&D Systems).

T13 sequence (Q16363 25-1823 limits assumed, chain 1 of 3): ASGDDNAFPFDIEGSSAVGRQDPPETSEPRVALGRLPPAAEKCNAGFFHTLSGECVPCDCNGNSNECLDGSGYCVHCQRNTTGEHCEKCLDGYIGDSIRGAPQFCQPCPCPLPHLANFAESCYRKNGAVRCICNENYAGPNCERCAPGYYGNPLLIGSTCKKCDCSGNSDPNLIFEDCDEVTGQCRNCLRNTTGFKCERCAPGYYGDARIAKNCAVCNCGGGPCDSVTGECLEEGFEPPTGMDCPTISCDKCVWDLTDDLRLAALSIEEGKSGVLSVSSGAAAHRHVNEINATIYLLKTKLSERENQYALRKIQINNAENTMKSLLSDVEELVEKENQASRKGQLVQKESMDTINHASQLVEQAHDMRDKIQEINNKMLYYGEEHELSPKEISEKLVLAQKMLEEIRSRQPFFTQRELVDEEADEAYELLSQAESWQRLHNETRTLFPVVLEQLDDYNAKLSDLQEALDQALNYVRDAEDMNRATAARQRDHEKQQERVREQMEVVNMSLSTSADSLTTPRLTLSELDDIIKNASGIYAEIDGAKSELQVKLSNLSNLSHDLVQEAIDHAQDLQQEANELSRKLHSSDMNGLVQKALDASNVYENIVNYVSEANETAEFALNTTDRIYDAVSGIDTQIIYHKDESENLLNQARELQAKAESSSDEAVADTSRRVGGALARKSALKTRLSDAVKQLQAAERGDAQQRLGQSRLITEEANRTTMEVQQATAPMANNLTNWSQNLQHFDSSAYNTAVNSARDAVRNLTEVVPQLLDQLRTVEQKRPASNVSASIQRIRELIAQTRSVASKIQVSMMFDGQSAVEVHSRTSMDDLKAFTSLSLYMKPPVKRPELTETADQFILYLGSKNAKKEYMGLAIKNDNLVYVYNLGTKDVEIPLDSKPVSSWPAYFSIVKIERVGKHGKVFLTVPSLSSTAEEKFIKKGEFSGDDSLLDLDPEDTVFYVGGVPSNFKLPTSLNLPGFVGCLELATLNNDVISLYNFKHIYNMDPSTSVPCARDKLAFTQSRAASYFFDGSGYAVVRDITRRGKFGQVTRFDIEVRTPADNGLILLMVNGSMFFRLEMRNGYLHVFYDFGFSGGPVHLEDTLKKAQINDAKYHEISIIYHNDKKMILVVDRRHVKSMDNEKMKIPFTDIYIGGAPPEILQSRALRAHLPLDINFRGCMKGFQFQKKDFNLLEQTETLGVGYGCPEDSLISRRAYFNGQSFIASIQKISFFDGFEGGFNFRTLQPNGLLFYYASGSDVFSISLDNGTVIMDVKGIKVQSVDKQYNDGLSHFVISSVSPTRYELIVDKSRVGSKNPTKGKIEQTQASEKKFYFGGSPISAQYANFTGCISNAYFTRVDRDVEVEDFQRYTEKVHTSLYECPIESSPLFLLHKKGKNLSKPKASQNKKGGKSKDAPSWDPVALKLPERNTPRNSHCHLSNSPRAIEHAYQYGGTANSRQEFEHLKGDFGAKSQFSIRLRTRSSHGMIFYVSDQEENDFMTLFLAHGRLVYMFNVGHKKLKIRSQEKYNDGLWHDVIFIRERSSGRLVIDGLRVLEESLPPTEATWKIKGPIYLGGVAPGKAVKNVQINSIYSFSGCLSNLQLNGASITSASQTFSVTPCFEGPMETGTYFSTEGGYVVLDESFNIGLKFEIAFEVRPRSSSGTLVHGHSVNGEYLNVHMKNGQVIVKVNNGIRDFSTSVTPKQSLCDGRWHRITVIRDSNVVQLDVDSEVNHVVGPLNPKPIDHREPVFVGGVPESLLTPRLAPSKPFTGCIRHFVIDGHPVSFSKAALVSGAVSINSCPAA
T13 sequence (P07942 22-1786 limits assumed, chain 2 of 3): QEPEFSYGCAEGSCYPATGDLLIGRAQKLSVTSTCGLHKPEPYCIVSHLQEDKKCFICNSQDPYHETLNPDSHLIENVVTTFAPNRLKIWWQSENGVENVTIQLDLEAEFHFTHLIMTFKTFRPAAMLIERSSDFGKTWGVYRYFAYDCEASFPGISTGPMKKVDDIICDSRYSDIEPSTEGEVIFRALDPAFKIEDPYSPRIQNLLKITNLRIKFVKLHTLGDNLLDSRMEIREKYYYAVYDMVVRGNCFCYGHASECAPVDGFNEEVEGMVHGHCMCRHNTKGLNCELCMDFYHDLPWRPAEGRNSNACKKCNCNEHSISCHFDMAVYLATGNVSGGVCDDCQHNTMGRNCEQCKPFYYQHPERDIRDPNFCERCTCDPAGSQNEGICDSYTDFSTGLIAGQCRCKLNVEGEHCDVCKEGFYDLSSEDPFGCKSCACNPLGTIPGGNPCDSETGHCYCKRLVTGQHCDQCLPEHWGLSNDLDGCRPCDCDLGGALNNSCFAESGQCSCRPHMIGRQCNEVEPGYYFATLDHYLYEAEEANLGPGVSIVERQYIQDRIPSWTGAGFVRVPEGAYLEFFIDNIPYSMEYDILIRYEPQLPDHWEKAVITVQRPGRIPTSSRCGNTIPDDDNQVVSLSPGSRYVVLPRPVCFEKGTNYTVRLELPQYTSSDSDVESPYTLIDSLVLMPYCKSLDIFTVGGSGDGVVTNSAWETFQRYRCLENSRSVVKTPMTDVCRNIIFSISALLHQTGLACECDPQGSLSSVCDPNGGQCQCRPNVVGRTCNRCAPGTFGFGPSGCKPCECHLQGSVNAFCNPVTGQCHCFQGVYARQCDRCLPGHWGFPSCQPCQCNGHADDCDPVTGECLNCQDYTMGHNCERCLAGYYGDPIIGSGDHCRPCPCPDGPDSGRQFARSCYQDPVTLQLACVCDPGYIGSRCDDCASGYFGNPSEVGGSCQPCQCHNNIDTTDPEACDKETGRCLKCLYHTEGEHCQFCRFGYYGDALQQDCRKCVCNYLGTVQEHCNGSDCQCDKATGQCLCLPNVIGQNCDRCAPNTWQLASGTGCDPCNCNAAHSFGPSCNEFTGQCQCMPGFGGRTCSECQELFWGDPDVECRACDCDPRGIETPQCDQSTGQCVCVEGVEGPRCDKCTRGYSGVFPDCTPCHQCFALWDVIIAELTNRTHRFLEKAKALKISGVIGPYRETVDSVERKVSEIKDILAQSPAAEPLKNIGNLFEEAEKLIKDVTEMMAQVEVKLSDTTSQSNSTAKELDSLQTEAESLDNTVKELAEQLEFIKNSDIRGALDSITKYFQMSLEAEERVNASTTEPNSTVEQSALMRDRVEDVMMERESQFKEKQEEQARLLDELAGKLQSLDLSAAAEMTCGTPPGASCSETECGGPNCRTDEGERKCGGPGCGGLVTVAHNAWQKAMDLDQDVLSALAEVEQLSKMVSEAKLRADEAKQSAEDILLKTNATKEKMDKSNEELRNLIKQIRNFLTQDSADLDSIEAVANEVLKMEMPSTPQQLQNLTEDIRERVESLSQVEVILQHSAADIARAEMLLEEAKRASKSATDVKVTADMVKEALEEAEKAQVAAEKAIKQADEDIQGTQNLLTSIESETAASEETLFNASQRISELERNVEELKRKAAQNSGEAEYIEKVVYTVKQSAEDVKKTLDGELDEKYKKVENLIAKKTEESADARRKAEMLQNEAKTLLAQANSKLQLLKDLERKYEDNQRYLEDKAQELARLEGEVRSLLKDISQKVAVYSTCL
T13 sequence (P11047 34-1609 limits assumed, chain 3 of 3): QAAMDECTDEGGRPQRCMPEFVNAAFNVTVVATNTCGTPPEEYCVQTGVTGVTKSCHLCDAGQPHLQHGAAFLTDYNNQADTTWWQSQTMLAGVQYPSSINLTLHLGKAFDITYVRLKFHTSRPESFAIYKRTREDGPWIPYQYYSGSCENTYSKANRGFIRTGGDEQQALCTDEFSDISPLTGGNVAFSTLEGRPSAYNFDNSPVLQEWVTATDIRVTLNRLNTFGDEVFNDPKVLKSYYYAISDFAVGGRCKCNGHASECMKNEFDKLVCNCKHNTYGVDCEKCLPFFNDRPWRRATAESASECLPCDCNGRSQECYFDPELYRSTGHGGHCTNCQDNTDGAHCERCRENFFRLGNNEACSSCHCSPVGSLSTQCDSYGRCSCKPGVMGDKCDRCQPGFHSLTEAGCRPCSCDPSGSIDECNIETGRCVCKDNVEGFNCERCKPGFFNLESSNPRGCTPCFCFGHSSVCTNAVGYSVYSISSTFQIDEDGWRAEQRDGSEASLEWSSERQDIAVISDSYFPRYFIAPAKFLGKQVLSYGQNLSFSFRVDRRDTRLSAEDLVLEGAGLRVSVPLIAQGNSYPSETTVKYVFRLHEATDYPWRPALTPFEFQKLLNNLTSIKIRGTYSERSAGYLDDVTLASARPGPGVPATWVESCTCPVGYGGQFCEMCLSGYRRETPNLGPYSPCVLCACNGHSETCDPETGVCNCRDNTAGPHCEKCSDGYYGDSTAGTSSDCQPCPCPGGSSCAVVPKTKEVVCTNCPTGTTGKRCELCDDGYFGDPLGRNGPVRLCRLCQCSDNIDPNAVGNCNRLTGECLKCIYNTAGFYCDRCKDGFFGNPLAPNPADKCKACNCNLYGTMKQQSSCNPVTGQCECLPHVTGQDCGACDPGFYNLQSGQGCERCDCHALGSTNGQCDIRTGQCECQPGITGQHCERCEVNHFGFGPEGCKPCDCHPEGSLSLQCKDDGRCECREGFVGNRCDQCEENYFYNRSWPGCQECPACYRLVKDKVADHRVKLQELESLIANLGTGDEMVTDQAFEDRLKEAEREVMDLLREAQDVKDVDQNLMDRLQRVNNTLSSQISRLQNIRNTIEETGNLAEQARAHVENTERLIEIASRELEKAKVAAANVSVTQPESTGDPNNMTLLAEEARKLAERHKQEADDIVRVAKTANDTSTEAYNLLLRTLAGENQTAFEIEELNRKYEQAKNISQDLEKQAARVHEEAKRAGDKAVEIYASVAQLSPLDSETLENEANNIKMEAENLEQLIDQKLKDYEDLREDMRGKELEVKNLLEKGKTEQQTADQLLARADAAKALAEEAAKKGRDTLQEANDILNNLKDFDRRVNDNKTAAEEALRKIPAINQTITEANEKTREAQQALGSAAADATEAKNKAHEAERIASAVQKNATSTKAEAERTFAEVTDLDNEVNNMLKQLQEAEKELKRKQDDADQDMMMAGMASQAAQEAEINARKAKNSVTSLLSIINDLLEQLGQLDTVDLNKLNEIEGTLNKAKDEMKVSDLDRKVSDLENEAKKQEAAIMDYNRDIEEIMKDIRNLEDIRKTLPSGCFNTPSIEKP

Binder: B1
- binding result [1]: no binding (tested: 1 µg/mL VEGF-A165 (single concentration))
- binding result [2]: no binding (tested: 1 µg/mL VEGF-A121 (single concentration))
- binding result [3]: no binding (tested: 1 µg/mL VEGF-A145 (single concentration))

Binder: B2
- binding result [4]: no binding (tested: 1 µg/mL VEGF-A121 (single concentration))
- binding result [5]: no binding (tested: 1 µg/mL VEGF-A121 (single concentration))
- binding result [6]: no binding (tested: 1 µg/mL VEGF-A121 (single concentration))
- binding result [7]: no binding (tested: 1 µg/mL VEGF-A121 (single concentration))
- binding result [8]: no binding
- binding result [9]: no binding (tested: A450 0.1)
- binding result [10]: no binding (tested: A450 0.1)
- binding result [11]: no binding (tested: A450 0.1)
- binding result [12]: no binding (tested: A450 0.1)
- binding result [13]: no binding (tested: A450 0.1)
- binding result [14]: no binding (tested: A450 0.1)
- binding result [15]: no binding (tested: A450 0.1)
- binding result [16]: no binding (tested: 1 µg/mL)
